Test results as given in US20240239915A1 (Zymeworks, published 2024).
Substitutions are numbered along the chain they refer to. In names and notes the source's numbering stands. Where two headings read alike, the source gives them in different places.

T1: Recombinant Human Fc gamma RIIIB/CD16b Protein (R&D Systems), His-tagged (human, UniProt O75015 20-208)
T1 construct: also called human FcγRIIIb; hFcγRIIIb
T1 chain: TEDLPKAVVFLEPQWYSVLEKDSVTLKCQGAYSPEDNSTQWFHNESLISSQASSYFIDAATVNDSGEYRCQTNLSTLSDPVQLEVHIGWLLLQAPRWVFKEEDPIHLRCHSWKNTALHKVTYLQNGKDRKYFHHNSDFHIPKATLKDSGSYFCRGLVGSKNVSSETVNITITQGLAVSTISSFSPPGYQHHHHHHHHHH

T2: Recombinant Cynomolgus Fc gamma RIIA/CD32a Protein (R&D Systems), His-tagged (cynomolgus)
T2 construct: also called cynomolgus FcγRIIa; cFcγRIIa
T2 chain: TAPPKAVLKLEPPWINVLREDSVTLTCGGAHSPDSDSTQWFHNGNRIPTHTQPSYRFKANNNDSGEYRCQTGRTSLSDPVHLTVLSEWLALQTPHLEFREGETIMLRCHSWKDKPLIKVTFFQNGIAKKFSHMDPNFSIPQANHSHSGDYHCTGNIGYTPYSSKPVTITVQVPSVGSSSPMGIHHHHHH

T3: Recombinant Cynomolgus Fc gamma RIIB protein (R&D Systems), His-tagged (cynomolgus)
T3 construct: also called cynomolgus FcγRIIb; cFcγRIIb
T3 chain: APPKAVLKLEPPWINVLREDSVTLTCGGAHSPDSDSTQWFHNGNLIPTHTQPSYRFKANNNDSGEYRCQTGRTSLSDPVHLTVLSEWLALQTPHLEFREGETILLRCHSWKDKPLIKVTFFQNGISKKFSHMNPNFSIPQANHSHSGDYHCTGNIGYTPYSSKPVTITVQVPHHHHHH

T4: Recombinant Cynomolgus Fc gamma RIII/CD16 Protein (R&D Systems), His-tagged (cynomolgus, UniProt Q8SPW2 17-208)
T4 construct: also called cynomolgus FcγRIII; cFcγRIII
T4 chain: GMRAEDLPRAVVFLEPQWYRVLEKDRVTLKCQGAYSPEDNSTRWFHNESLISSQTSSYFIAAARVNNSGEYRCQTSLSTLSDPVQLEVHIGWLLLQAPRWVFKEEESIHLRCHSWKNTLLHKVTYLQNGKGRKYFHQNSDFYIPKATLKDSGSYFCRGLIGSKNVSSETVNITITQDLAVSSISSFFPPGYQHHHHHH

T5: Recombinant Cynomolgus Monkey Fc gamma RI/CD64 Protein, CF (R&D Systems), His-tagged (cynomolgus, UniProt P12314 11-288 (human entry))
T5 construct: also called cynomolgus FcγRI; cFcγRI
T5 chain: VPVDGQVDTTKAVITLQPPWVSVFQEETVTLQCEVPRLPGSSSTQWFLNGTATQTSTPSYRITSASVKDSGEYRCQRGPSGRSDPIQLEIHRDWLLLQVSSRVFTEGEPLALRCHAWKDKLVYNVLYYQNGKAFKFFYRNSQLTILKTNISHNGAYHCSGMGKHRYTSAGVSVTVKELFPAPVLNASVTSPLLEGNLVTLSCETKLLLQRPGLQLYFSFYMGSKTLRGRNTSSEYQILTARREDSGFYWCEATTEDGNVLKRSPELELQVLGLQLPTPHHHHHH

T6: Recombinant Human Fc gamma RIIB/C (CD32b/c) Protein (R&D Systems), His-tagged (human, UniProt P31994 46-217)
T6 construct: also called human FcγRIIb/c; hFcγRIIb/c
T6 sequence: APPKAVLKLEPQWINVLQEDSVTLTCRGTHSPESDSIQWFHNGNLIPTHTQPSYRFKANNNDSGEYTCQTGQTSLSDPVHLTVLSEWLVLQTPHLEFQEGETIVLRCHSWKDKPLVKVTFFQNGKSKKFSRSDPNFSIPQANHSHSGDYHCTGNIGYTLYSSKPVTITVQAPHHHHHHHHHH

T7: Recombinant Human Fc gamma RIIA/CD32a (H167) Protein (R&D Systems), His-tagged (human, UniProt P12318 34-218)
T7 construct: also called human FcγRIIa (H167); hFcγRIIa (H167)
T7 sequence: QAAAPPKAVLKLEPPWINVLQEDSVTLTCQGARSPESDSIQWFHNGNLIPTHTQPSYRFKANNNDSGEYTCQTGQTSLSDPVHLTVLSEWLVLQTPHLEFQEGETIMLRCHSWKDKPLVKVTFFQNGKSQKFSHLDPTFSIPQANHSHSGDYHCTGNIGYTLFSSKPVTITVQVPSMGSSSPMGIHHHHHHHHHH

B1: LALA variant of the anti-LPS antibody O11-1111 (IgG1) (antibody)
heavy: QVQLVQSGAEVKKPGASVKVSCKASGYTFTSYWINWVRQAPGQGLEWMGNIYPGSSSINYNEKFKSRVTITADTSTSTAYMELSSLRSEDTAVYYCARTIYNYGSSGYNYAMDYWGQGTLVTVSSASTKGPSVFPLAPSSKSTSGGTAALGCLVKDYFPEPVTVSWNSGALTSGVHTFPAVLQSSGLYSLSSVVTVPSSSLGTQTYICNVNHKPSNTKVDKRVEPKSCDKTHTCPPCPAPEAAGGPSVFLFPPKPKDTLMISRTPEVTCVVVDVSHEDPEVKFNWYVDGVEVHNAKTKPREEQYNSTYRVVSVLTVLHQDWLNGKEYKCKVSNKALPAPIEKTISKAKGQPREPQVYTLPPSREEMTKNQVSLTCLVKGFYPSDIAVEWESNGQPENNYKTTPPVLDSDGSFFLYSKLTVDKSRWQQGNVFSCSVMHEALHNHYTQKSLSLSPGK
light: DIVMTQSPDSLAVSLGERATINCKASENVGNSVSWYQQKPGQPPKLLIYGASNRYTGVPDRFSGSGSGTDFTLTISSLQAEDVAVYYCGQSYSYPYTFGQGTKVEIKRTVAAPSVFIFPPSDEQLKSGTASVVCLLNNFYPREAKVQWKVDNALQSGNSQESVTEQDSKDSTYSLSSTLTLSKADYEKHKVYACEVTHQGLSSPVTKSFNRGEC
notes: LALA substitutions in EU numbering; also called Anti-LPS Antibody LALA
B2: L234A/L235A/D265G/P329A (LALA-DGPA) variant of IgG1 WT of the anti-EGFR antibody panitumumab (antibody)
heavy: QVQLQESGPGLVKPSETLSLTCTVSGGSVSSGDYYWTWIRQSPGKGLEWIGHIYYSGNTNYNPSLKSRLTISIDTSKTQFSLKLSSVTAADTAIYYCVRDRVTGAFDIWGQGTMVTVSSASTKGPSVFPLAPSSKSTSGGTAALGCLVKDYFPEPVTVSWNSGALTSGVHTFPAVLQSSGLYSLSSVVTVPSSSLGTQTYICNVNHKPSNTKVDKRVEPKSCDKTHTCPPCPAPEAAGGPSVFLFPPKPKDTLMISRTPEVTCVVVGVSHEDPEVKFNWYVDGVEVHNAKTKPREEQYNSTYRVVSVLTVLHQDWLNGKEYKCKVSNKALAAPIEKTISKAKGQPREPQVYTLPPSREEMTKNQVSLTCLVKGFYPSDIAVEWESNGQPENNYKTTPPVLDSDGSFFLYSKLTVDKSRWQQGNVFSCSVMHEALHNHYTQKSLSLSPGK
light: not shown
notes: Positions are EU numbers
B3: L234A/L235A/D265Q (LALA-DQ) variant of IgG1 WT of the anti-EGFR antibody panitumumab (antibody)
heavy: B2 heavy with G267Q, A331P
light: not shown
notes: Mutations in both CH2 domains; positions are EU numbers
B4: L234A/L235A/D265T (LALA-DT) variant of IgG1 WT of the anti-EGFR antibody panitumumab (antibody)
heavy: B2 heavy with G267T, A331P
light: not shown
notes: as for B3
B5: L234A/L235A/D265N (LALA-DN) variant of IgG1 WT of the anti-EGFR antibody panitumumab (antibody)
heavy: B2 heavy with G267N, A331P
light: not shown
notes: as for B3
B6: L234A/L235A/P329G (LALA-PG) variant of IgG1 WT of the anti-EGFR antibody panitumumab (antibody)
heavy: B2 heavy with G267D, A331G
light: not shown
notes: as for B3

Legend:
[1] = biological target: T1, Recombinant Human Fc gamma RIIIB/CD16b …; assay: SPR (Biacore T200); receptor immobilized directly on CM5 chip, antibody as analyte at 4.7 µM
[2] = biological target: T8, human FcRn (human neonatal Fc receptor large subunit p51 and beta2-microglobulin), biotinylated (human, UniProt P55899 24-297; P61769 21-119, biotinylated (site not stated)); assay: BLI (Octet RED384), biotinylated FcRn on streptavidin biosensor, binding at pH 6.0, dissociation at pH 7.4
T8 sequence (P55899 24-297 limits assumed, chain 1 of 2): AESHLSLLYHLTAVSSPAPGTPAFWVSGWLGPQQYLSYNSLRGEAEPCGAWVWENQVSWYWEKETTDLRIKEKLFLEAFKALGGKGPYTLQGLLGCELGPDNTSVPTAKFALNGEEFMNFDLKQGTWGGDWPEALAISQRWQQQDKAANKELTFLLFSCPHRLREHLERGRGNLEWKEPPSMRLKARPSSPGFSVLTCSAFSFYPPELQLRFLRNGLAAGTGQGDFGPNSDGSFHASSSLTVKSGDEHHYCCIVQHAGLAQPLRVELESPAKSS
T8 sequence (P61769 21-119 limits assumed, chain 2 of 2): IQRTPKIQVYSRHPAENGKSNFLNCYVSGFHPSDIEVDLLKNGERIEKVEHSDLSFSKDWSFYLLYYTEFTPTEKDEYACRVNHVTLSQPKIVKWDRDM

[3] = biological target: T8, human FcRn (human neonatal Fc receptor …); assay: BLI (Octet RED384), biotinylated FcRn on streptavidin biosensor, binding and dissociation at pH 6.0
[4] = biological target: T2, Recombinant Cynomolgus Fc gamma …; assay: SPR (Biacore T200); receptor immobilized directly on CM5 chip, antibody as analyte at 4.7 µM
[5] = biological target: T3, Recombinant Cynomolgus Fc gamma RIIB …; assay: as above
[6] = biological target: T4, Recombinant Cynomolgus Fc gamma …; assay: as above
[7] = biological target: T5, Recombinant Cynomolgus Monkey Fc gamma …; assay: SPR (Biacore T200), RU at 4.7 µM antibody
[8] = biological target: T1, Recombinant Human Fc gamma RIIIB/CD16b …; assay: SPR (Biacore T200); receptor immobilized directly on CM5 chip, antibody as analyte at 4.7 µM
[9] = biological target: T9, Recombinant Human Fc gamma RIIIA/CD16a (V176F) Protein (R&D Systems), His-tagged (human, UniProt P08637 17-208); assay: as above
T9 construct: no further substitution applied; also called human FcγRIIIa (V176F); hFcγRIIIa (V176F)
T9 sequence (P08637 other isoform, or with tags, fused parts or gaps V176F V176F): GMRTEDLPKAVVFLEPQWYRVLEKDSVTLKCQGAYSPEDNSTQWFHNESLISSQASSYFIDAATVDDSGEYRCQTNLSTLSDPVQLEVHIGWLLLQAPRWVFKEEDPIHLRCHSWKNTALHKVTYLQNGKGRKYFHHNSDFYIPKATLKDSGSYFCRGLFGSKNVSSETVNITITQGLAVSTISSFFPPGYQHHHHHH

[10] = biological target: T6, Recombinant Human Fc gamma RIIB/C …; assay: as above
[11] = biological target: T7, Recombinant Human Fc gamma RIIA/CD32a …; assay: as above
[12] = biological target: T10, Recombinant Human Fc gamma RIIIA/CD16a protein (R&D Systems), His-tagged (human, UniProt P08637 17-208); assay: as above
T10 construct: also called human FcγRIIIa; hFcγRIIIa
T10 sequence (P08637 other isoform, or with tags, fused parts or gaps): as the sequence (P08637 other isoform, or with tags, fused parts or gaps V176F V176F) above, with F160V counted along it

[13] = biological target: T1, Recombinant Human Fc gamma RIIIB/CD16b …; assay: as above
[14] = biological target: T9, Recombinant Human Fc gamma RIIIA/CD16a …; assay: as above; remark: listed apart in the source
[15] = biological target: T6, Recombinant Human Fc gamma RIIB/C …; assay: as above; remark: listed apart in the source
[16] = biological target: T7, Recombinant Human Fc gamma RIIA/CD32a …; assay: as above; remark: listed apart in the source
[17] = biological target: T10, Recombinant Human Fc gamma RIIIA/CD16a …; assay: as above; remark: listed apart in the source
[18] = biological target: T5, Recombinant Cynomolgus Monkey Fc gamma …; assay: SPR (Biacore T200); His-tagged receptor captured on anti-His antibody chip, antibody as analyte at 4.7 µM
[19] = biological target: T2, Recombinant Cynomolgus Fc gamma …; assay: SPR (Biacore T200); receptor immobilized directly on CM5 chip, antibody as analyte at 4.7 µM
[20] = biological target: T3, Recombinant Cynomolgus Fc gamma RIIB …; assay: as above
[21] = biological target: T4, Recombinant Cynomolgus Fc gamma …; assay: as above

Binder | binding response (RU) [4] | binding response (RU) [5] | binding response (RU) [6] | RU value relative to the LALA-DA variant [7] | binding response (RU) [8] | binding response (RU) [9] | binding response (RU) [10] | binding response (RU) [11] | binding response (RU) [12] | also measured
B1 |  |  |  |  |  |  |  |  |  | binding response (RU) [1]: -1.4 RU
B2 |  |  |  |  |  |  |  |  |  | koff [2]: 2.3 s⁻¹; Kd [3]: 5 nM
B3 | 22 RU | 89 RU | 3.5 RU | ≥ 1.4 fold | -0.6 RU | -3.5 RU | 15 RU | 34 RU | -2.1 RU | 
B4 | 24 RU | 93 RU | 4.8 RU | ≥ 1.4 fold | -0.2 RU | -3.6 RU | 15 RU | 37 RU | -1.4 RU | 
B5 | 19 RU | 85 RU | 3.1 RU |  | -1 RU | -5 RU | 14 RU | 21 RU | -3.3 RU | 
B6 |  |  |  |  |  |  |  |  |  | binding response (RU) [13]: -0.4 RU; binding response (RU) [14]: -0.8 RU; binding response (RU) [15]: 19 RU; binding response (RU) [16]: 19 RU; binding response (RU) [17]: -0.7 RU; binding response (RU) [18]: 1300 RU; binding response (RU) [19]: 23 RU; binding response (RU) [20]: 110 RU; binding response (RU) [21]: 10 RU
